The values that follow come from US20210388108A1 (GLYCARDIAL DIAGNOSTICS S L, published 2021).

No end group written: not given here. *: point of attachment. Biotin = O=C1N[C@H]2[C@H](CS[C@H]2CCCCC(=O)*)N1; GlcNAc = N-acetylglucosamine

In test [1] the target is T1, Ag4G (Bio-EEFLN(GlcNAc)QSSP).
T1 peptide: Biotin-EEFLN(GlcNAc)QSSP
Kind of test: QC ELISA of the IgG on its target peptide. For orientation: ELISA stands for enzyme-linked immunosorbent assay.

Test [2] addresses T2, Ag1G (Bio-REIRHN(GlcNAc)STGC).
T2 peptide: Biotin-REIRHN(GlcNAc)STGC
The test can be described thus: QC ELISA of the IgG on its target peptide.

B1: Ag4G-6 (antibody, V domains shown)
VH: QQLEESGGRLVTPGTPLTLTCTASGMDLSKYWMTWVRQAPGKGLEYIGIIETGGSAYYASWAKGRFTISRTSTTVDLKMISPTTEDTATYFCGRWGDIWGPGTLVTVSS
VL: MTQTPASVEVAVGGTVTIKCQASQSINGYLAWYQQKPGQPPKLLIYQASTLASGVSSRFQGSGSGTEYTLTISGVQCDDAATYYCQGDYYGWIRTFGGGTEVVVKR
notes: Rabbit/human chimeric clone from a Fab phage library; tested 'in the form of IgG'; the FWR4 entries as printed run on into human C kappa (light) and human CH1 plus His tag (heavy), i.e. the Fab format; also called Apo J-GlcNAc Ag4G-6
As to B1, the binding result in test [1] is “binds”.

B2: Ag1G-11 (antibody, V domains shown)
VH: QSLEESGGRLVTPGGSLTLTCTVSGFSLSSYAMSWVRQAPGKGLEWIGIIGVNGDTYYASWAKGRFTISKTSTTVGLKITSPTTEDTATYFCARVRYPYYDTDAFDPWGPGTLVTISS
VL: DPVLTQTPSPVSAAVGGTVTINCQASQSVYNNNELSWYQQKPGQPPKPLIYQASKLASGVPSRFKGSGSGTQFTLTISDLECDDAATYYCQGIYLGSDWYDVFGGGTEVVVKR
notes: Rabbit/human chimeric clone from a Fab phage library; tested 'in the form of IgG'; the FWR4 entries as printed run on into human C kappa (light) and human CH1 plus His tag (heavy), i.e. the Fab format; also called Apo J-GlcNAc Ag1G-11
On to B2, for which the binding result in test [2] is listed as “binds”.
